This is an account of results in patent US20060142546A1, “Immunogenic muc1 glycopeptides” (priority 2002, published 2006).

Experiment [1] deals with T1, human cathepsin L (Homo sapiens, UniProt P07711).
T1 construct: in the cathepsin L preparation from human liver; purchased Sigma (München, Germany); host or cells: human liver
Briefly: In vitro proteolysis of native MUC1 and MUC1 (glyco)peptides with human cathepsin L. As to conditions: for proteolysis by cathepsin L: 3 h or 24 h. The format is biochemical. As to the method:
FIG. 4: In vitro proteolysis of MUC1 glycopeptide A3 by human cathepsin L. N-terminally free or biotinylated MUC1 glycopeptide A3 (10 μg) were treated for 3 h with 1 milliunit of cathepsin L in the presence or absence of the cathepsin L/B-specific cysteine protease inhibitor Z-Leu-Leu-Leu-fluoromethyl ketone (1 μM) using 0.1M sodium acetate, pH 5.5, containing 1 mM EDTA, and 1 mM DTT as reaction buffer.
Human cathepsins L and D were purchased from Sigma (München, Germany) and solubilized in 0.1 M sodium acetate buffer, pH 5.5, containing 1 mM EDTA (cathepsin D) and 1 mM dithiotreitol (cathepsin L). 2-5 units of enzyme(s) were added to 100 μg of mucin or recombinant fusion protein or to 10 μg of (glyco)peptide substrates in a total volume of 20 μl digestion buffer (see above). The reaction mixtures were incubated at 37° C. and 2 μl were withdrawn after 3 h or 24 h and diluted 20 fold in 0.1% aqueous TFA prior to MALDI mass spectrometry. In case of native MUC1 samples with complex O-glycosylation (MUC1 from tumor ascites, HMFG-MUC1, partially deglycosylated HMFG-MUC1, and MFP6 fusion protein) the digest was desalted by solid-phase extraction (ZipTip C18) and the (glyco)peptides were deglycosylated by β-elimination/ethylaminylation in 70% ethylamine at 50° C. as previously described (Müller and Hanisch, J. Biol. Chem. 277 (2002), 26103-26112). Each glycosylated position in the peptide fragments corresponds to the addition of a 27 u mass increment.

The test system of experiment [2] is Cathepsin L-like activity in low-density endosomes from mouse dendritic cells. Briefly: Proteolysis of TAP25 by low-density endosomal fractions from mouse dendritic cells. Type of experiment: biochemical. Conditions: 1 μM inhibitor, TAP25 as substrate. As to the method:
Mouse dendritic cells (10^8) were homogenized by fine-needle aspiration on ice using 1 ml of 0.3 M sucrose, 0.01 M Hepes as buffer (without protease inhibitors). After dilution to 7 ml and centrifugation at 850 g for 10 min to remove intact cells and nuclei, 6 ml of the supernatant were centrifuged over 24 ml of 30% Percoll with 0.3 M sucrose, 0.01 M Hepes for 105 min at 20.000 rpm in a centrifuge (model J2-21 M/E, rotor: JA-20, Beckman instruments, München, Germany) (Barnes et al., J. Exp. Med. 181 (1995), 1715-1727). The gradient was fractionated by gravity siphon (30×1 ml) and each fraction was analysed after sonication for the presence of MHC class II molecules by enzyme immunoassay with anti-H2 antibody (rat hybridoma cell line M1/42.3.9.8.HLK obtained from the ATCC), β-hexosamimidase activity (Barnes et al., 1995) and cathepsin L related proteolytic activity using TAP25 peptide as substrate (5 μg). The samples were incubated for 24 h at 37° C., diluted 20 fold in aqueous TFA and analysed by MALDI mass spectrometry. For specific inhibition of cathepsin L activity, the corresponding fractions were mixed with 1 μM Z-Leu-Leu-Leu-fluoromethyl ketone (Sigma).

Experiment [3] has as its system human immature dendritic cells. Briefly: Processing of MUC1 antigen by human monocyte-derived dendritic cells (antigen pulse, MALDI/LC-MS of fragments). The format is cell-based. Conditions: cellular lysate or culture supernatant, mass range up to 8 kDa.
Protocol: Human immature DCs were pulsed with native, N-terminally unmodified, soluble antigens, while the mature mouse DCs had to be fed with particulate antigen to reach sufficient antigen load. […] Simultaneously, the maturation process of the cells was induced by addition of 20 ng/ml tumor necrosis factor (TNF-α; Sigma-Aldrich, Munich, Germany) and 10 μg/ml of anti-CD40 antibody (Pharmingen, San Diego, Calif.). The cells were finally separated from medium by centrifugation, washed in PBS and both fractions were analysed for the presence of peptide/glycopeptide fragments according to the protocol described below.
The human or mouse dendritic cell fractions were treated on ice for 15 min with 100 μl 1% NP40, 10 mM Tris-HCl, 150 mM NaCl, pH 8.0 containing a cocktail of protease inhibitors (Sigma P8340, München, Germany) followed by ultrasonication for 2 min. […] To avoid selection of product subfractions by affinity-isolation, in most experiments the peptides were enriched by solid-phase extraction on reversed-phase columns.
Peptides and glycopeptides contained in the cell-free supernatants were affinity-isolated by solid-phase extraction on reversed-phase supports (100 μg polysphere C18, 50 μl Poros C18). […]

Where a SMILES comes first, the peptide text is derived from it. Where no end group is shown, it is not given here. The star is where a group is joined. Cbz = O=C(OCc1ccccc1)*; CH2F = FC*

T1 sequence (P07711 114-288 limits assumed): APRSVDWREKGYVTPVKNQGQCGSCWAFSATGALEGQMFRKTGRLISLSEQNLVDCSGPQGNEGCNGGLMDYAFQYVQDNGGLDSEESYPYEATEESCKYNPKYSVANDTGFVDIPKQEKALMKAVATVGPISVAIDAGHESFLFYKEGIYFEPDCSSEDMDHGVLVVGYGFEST
T1 sequence (P07711 292-333 limits assumed): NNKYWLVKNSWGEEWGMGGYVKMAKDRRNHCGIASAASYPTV

As for “GST20-AES (GSTAPAAHGVTSAPESRPAP; also: glycosylated, sites not given here)”, the “structural assignment of product” value in experiment [1] (Table 2, 3 h, 37° C., pH 5.5) is given as “SAP9”. Further, in experiment [1] (Table 2, synthetic monomeric repeat peptides, N-terminally unmodified, 3 h, 37° C., pH 5.5, 1 mM DTT), the “Average mass of production (mass range 500-4500 Da)” value was 910.8 Da. The same molecule had a cleavage in experiment [1] (standard conditions for cysteine proteases, incubation 3 h) of 80%.
Regarding “GalNAc-MUC1: partially deglycosylated HMFG-MUC1”, the “structural assignment of repeat fragment ion” value in experiment [1] (Table 3, native mucin, after de-O-glycosylation/ethylaminylation) is given as “GVT20 + 1-4 HexNAc”. In addition, in experiment [1] (pH 5.5, 1 mM DTT, 37° C.), the “proteolysis by cathepsin L” value is listed as “fragmentation by cathepsin L at low efficiency”.
In the case of `CC(C)C[C@H](NC(=O)[C@H](CC(C)C)NC(=O)[C@H](CC(C)C)NC(=O)OCc1ccccc1)C(=O)CF` [Z-Leu-Leu-Leu-fluoromethyl ketone, reference compound] (Cbz-Leu-Leu-Leu-CH2F), the “inhibition of cysteine protease in low density endosomes” value in experiment [2] is “inhibitable”. Also, the “inhibition of catalytic activity directed to the Thr-Ser bond” value in experiment [1] (inhibitor 1 μM, substrate glycopeptide A3) is listed as “specifically inhibited”.
“Asc-MUC1: MUC1 from pooled human tumor ascites”: the fragmentation of antigen entry in experiment [3] is recorded as “No fragmentation”. The “proteolysis by cathepsin L” value in experiment [1] (pH 5.5, 1 mM DTT, 37° C.) is on record as “not digested”.
As to “AHGVTSAPESRPAPGSTAPAA (not fully specified (residue 5); also: GalNAc glycan at Thr5 (H4), Ser10 (H5) or Thr17 (H6), which one is not fixed for this name, biotinylated)”, in experiment [1] (pH 5.5, 1 mM DTT, 37° C.), the “proteolysis by cathepsin L” value is “stable to proteolysis”.
In the case of “HMFG-MUC1: mucin from human milk fat globule membranes”, the “proteolysis by cathepsin L” value in experiment [1] (pH 5.5, 1 mM DTT, 37° C.) is recorded as “not digested”.
